Broadly, the Kd is the equilibrium constant for the complex coming apart.

This note sets out measurements from article PMC9874840.

This assay addresses human cyclophilin A (human) (UniProt P62937). Kind of assay: SPR. In general terms: Surface plasmon resonance follows binding to a sensor surface in real time, without labels.

human cyclophilin A (human), sequence (P62937 whole entry): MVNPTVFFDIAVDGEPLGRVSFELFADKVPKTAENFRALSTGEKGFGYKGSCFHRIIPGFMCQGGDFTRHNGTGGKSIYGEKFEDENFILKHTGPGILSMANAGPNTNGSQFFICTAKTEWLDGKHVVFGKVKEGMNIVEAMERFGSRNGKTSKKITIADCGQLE

The substance “SARS-CoV-2 RBD, Deltacron variant (AY.4/BA.1) (from UniProt P0DTC2) (domain or fragment)” had a Kd of 0.0186 µM.
As for “SARS-CoV-2 RBD, Omicron variant (BA.1, B.1.1.529) (from UniProt P0DTC2) (domain or fragment)”, the figure is 0.0264 µM.
